Test results taken from article PMC8358021 (2021).

Target: T1, AbApeO-AbApeC heterodimer (ketosynthase-chain length factor complex of the aryl polyene biosynthesis gene … (Acinetobacter baumannii))
T1 chain 1: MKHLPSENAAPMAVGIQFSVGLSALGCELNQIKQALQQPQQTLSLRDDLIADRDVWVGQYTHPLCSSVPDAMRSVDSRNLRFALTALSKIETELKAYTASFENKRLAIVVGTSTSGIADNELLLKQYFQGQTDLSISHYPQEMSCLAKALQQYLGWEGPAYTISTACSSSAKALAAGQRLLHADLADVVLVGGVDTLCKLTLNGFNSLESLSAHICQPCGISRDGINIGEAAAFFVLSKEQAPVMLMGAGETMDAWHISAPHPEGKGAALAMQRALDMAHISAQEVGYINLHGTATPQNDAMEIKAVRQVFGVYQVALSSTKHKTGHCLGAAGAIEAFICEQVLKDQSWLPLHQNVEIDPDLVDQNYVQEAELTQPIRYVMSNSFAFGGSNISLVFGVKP
T1 chain 2: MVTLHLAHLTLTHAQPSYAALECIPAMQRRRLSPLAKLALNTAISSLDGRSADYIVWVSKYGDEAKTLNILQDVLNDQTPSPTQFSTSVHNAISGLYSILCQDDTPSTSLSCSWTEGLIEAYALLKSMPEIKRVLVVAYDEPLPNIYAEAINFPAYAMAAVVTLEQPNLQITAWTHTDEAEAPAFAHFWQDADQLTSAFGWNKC
Assay: ITC

B1: holo ACP2 (ApeF), acyl carrier protein 2 of the A. baumannii APE gene cluster (natural protein)
chain: MSNLADELKQMIIDVLALEDITIADIDTEAPLFGEGLGLDSIDALELGLALKKRYNIHLNAESDETKQHFKSIQSLVALVEAQQKS
modifications: 4'-phosphopantetheine (holo form)
Kd: 42.7 µM
